Test results published in US20260201003A1.

Tests used:
FcγRI [1] = biological target: FcγRI (UniProt P12314); experiment: Biacore; FcγR captured through anti-His antibody; response at end of injection normalised to the standard
FcγRI [2] = experiment: as above
FcγRIIIa V158 = FcγRIIIa V158 (UniProt P08637); experiment: as above
FcRn = FcRn (UniProt P55899); experiment: Biacore; FcRn directly immobilized; response at end of injection normalised to the standard
Flt3 receptor (human) = Flt3 receptor (human) (UniProt P36888); experiment: cell-based or functional assay
Chain of Flt3 receptor (human) (P36888 27-993): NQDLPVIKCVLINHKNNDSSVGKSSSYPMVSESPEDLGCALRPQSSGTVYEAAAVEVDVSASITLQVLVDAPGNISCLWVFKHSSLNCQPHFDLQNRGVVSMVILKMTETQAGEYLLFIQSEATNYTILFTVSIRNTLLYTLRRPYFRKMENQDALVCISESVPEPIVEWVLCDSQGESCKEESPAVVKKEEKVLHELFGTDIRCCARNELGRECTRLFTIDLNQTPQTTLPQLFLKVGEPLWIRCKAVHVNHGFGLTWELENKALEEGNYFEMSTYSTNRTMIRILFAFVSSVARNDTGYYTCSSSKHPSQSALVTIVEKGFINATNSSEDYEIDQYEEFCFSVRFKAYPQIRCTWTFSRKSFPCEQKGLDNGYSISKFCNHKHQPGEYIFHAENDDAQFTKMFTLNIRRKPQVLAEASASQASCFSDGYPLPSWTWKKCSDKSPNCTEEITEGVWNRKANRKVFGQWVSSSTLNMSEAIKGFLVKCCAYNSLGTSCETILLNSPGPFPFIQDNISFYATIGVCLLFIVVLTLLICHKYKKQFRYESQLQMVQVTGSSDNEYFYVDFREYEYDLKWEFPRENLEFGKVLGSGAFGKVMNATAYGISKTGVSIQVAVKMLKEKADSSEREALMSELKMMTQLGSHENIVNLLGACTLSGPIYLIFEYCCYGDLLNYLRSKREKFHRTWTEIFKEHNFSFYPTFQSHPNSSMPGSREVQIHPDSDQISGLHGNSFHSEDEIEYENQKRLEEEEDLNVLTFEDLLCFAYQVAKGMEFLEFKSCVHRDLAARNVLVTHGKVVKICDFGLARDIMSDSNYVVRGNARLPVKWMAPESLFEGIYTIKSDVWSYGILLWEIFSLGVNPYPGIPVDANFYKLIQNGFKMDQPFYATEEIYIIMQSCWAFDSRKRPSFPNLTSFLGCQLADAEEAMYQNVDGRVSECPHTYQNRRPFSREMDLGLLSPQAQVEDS

Chain of FcγRI (UniProt P12314) (P12314 16-288 limits assumed): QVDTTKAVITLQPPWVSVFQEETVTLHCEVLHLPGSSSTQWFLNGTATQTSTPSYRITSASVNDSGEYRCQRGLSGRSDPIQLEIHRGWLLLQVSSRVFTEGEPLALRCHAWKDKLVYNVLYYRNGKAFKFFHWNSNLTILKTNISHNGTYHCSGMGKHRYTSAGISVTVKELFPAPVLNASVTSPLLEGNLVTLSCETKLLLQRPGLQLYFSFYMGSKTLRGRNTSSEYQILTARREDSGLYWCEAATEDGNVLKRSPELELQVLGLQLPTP
Chain of anti-CD20 antibody (ocrelizumab variable domains) with IgG1 LALAPG constant region (constant): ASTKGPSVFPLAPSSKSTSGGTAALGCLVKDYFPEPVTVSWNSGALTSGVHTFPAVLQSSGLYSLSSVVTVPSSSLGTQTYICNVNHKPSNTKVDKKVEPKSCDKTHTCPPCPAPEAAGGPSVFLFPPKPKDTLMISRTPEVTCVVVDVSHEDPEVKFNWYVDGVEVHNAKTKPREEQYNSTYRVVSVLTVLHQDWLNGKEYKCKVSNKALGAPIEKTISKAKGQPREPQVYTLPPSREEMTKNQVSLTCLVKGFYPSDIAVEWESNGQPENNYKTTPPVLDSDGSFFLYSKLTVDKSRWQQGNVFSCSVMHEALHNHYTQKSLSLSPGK
Chain of FcγRIIIa V158 (P08637 17-208 F176V limits assumed): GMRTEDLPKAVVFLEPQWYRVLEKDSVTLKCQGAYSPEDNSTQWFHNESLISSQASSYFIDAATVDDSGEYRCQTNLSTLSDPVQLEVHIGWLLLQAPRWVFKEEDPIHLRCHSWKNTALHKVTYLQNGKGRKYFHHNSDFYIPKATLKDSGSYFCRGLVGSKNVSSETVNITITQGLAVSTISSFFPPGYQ
Chain of anti-CD20 antibody (ocrelizumab variable domains) with IgG1 NG constant region (constant): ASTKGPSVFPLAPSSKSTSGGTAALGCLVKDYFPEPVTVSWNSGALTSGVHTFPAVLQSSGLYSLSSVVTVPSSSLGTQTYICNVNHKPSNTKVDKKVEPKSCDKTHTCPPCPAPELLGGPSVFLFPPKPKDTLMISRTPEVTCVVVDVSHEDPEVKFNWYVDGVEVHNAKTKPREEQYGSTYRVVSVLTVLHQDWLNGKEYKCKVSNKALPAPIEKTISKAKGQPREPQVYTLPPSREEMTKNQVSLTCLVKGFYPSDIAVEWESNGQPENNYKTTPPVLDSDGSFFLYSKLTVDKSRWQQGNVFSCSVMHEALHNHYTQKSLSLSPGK
Chain of FcRn (P55899 24-297 limits assumed, form in doubt): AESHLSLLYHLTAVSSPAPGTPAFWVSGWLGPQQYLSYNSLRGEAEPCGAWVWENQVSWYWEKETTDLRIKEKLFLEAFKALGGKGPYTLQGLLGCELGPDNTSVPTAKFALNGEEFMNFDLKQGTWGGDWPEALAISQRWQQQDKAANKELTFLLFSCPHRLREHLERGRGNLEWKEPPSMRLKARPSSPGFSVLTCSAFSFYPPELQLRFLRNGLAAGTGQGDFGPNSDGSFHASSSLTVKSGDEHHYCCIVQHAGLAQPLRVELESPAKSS

Row | relative binding level (%) at 10 ug/ml (FcγRI [1]) [%] | relative binding level (%) at 10 ug/ml (FcγRI [2]) [%] | relative binding level (%) at 10 ug/ml (FcγRIIIa V158) [%] | relative binding level (%) at 10 ug/ml (FcRn) [%] | EC50 potency, proliferation of OCI-AML5 cells (Cell Titer Glo, 7 days) (Flt3 receptor (human)) [pM] | Molecule
1 | 1.74 | -0.34 | 1.36 | 95.9 | – | anti-CD20 antibody (ocrelizumab variable domains) with IgG1 LALAPG constant region
2 | 2.43 | 179 | 3.85 | 99.4 | – | anti-CD20 antibody (ocrelizumab variable domains) with IgG2 wildtype constant region (antibody, part only; not given: ocrelizumab variable domains, not shown: another chain or arm of the molecule) constant: ASTKGPSVFPLAPCSRSTSESTAALGCLVKDYFPEPVTVSWNSGALTSGVHTFPAVLQSSGLYSLSSVVTVPSSNFGTQTYTCNVDHKPSNTKVDKTVERKCCVECPPCPAPPVAGPSVFLFPPKPKDTLMISRTPEVTCVVVDVSHEDPEVQFNWYVDGVEVHNAKTKPREEQFNSTFRVVSVLTVVHQDWLNGKEYKCKVSNKGLPAPIEKTISKTKGQPREPQVYTLPPSREEMTKNQVSLTCLVKGFYPSDIAVEWESNGQPENNYKTTPPMLDSDGSFFLYSKLTVDKSRWQQGNVFSCSVMHEALHNHYTQKSLSLSPGK

More lines, now with the values behind:

Row | Molecule | relative binding level (%) at 10 ug/ml (FcγRI [1]) [%] | relative binding level (%) at 10 ug/ml (FcγRI [2]) [%] | relative binding level (%) at 10 ug/ml (FcγRIIIa V158) [%] | relative binding level (%) at 10 ug/ml (FcRn) [%] | EC50 potency, proliferation of OCI-AML5 cells (Cell Titer Glo, 7 days) (Flt3 receptor (human)) [pM]
3 | anti-CD20 antibody (ocrelizumab variable domains) with IgG1 NG constant region | 4.5 | 0.06 | 2.12 | 86.7 | –
4 | anti-CD20 antibody (ocrelizumab variable domains) with IgG4 SP constant region | 70.6 | 14.8 | 3.41 | 66.5 | –
5 | gCDX-301 (from UniProt P49771 27-179) (ligand) | – | – | – | – | 2.3
